T1: human IL-12Rβ2 (human, UniProt Q99665 24-862)
T1 construct: Expressed on HEK293T cells transiently transfected with a pcDNA3 plasmid (Genscript clone OHu21785); also called hIL-12RB2; IL-12 receptor β2 subunit
T1 sequence: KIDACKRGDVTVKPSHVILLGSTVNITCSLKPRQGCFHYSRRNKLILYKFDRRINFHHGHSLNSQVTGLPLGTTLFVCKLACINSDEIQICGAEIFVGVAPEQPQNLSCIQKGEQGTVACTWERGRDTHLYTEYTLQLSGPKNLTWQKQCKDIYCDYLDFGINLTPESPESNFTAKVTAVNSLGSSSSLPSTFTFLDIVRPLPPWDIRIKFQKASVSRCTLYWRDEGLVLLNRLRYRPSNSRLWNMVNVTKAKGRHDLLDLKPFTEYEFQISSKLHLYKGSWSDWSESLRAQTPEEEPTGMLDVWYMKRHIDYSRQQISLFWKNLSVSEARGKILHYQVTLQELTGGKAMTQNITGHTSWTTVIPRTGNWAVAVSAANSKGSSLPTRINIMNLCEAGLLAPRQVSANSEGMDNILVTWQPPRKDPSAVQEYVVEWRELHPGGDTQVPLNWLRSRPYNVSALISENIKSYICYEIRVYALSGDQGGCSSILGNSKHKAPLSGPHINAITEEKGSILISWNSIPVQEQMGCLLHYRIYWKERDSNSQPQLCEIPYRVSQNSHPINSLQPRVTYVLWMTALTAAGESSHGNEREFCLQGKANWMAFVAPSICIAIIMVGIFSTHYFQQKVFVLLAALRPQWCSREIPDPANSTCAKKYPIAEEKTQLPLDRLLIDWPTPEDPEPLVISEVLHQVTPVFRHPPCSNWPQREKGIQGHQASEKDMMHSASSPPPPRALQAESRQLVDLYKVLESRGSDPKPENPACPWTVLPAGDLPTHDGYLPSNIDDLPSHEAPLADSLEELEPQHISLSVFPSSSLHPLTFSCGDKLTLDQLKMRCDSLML

T2: biotinylated recombinant human IL-12Rβ2 (human, UniProt Q99665 24-622, random biotinylated)
T2 construct: Recombinant protein produced in-house, biotinylated; also called hIL-12RB2; human IL-12RB2
T2 sequence: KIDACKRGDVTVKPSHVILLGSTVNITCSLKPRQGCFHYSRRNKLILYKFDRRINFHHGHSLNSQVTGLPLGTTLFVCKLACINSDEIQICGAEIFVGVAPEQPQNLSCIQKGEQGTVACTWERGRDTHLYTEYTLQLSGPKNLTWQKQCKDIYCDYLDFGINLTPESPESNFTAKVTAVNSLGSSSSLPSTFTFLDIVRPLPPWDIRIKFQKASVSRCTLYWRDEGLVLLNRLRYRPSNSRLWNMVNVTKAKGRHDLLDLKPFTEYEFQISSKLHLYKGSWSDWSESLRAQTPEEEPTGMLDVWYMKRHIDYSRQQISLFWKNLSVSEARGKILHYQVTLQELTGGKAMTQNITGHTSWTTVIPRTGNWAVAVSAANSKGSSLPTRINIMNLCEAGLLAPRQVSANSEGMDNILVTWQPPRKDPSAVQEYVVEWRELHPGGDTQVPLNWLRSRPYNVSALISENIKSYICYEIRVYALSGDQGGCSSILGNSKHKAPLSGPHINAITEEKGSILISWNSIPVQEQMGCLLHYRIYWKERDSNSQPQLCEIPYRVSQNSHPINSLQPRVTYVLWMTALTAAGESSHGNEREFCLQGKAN

T3: biotinylated recombinant mouse IL-12Rβ2 (mouse, UniProt P97378 24-637, random biotinylated)
T3 construct: Recombinant protein produced in-house, biotinylated; also called mIL-12RB2; mouse IL-12RB2
T3 sequence: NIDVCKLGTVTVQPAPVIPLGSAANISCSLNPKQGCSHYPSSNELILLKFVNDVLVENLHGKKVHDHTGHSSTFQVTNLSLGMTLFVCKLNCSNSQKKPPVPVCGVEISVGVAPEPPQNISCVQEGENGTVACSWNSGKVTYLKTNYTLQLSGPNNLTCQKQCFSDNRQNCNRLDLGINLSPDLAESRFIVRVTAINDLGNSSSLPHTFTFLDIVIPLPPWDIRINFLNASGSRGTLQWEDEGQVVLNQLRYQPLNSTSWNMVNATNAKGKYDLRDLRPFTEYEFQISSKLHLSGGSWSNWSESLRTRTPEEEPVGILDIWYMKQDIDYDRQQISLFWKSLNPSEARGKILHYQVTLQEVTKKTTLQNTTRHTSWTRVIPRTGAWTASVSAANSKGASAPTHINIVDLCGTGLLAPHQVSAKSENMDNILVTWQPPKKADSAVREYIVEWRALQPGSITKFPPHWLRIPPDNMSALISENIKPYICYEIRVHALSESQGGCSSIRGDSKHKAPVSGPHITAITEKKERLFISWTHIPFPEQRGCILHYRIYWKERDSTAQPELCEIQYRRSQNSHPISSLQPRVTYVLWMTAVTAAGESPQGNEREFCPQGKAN


Key:
human IL-12Rβ2 = molecular target: T1, human IL-12Rβ2; test: flow cytometry, P.E. on transfected HEK293T cells
[1] = molecular target: T2, biotinylated recombinant human IL-12Rβ2; test: ELISA, periplasmic extract on biotinylated hIL-12Rβ2, signal over control wells
[2] = molecular target: T3, biotinylated recombinant mouse IL-12Rβ2; test: ELISA, periplasmic extract on biotinylated mIL-12Rβ2, signal over control wells

| Binder | % cells bound (human IL-12Rβ2) [%] | dMFI (human IL-12Rβ2) | ELISA binding hIL-12RB2/control [1] [ratio] | ELISA binding mIL-12RB2/control [2] [ratio] |
| --- | --- | --- | --- | --- |
| anti-IL-12Rβ2 VHH clone 3CAH34 (VHH, not shown: small tags and cut ends, periplasmic extract; also called 20358) VHH: QVQLQESGGGSVQPGGSLRLSCGASGFTFSSFGMHWFRQAPGKGQEWAATISSSGGTTYYSDSVKGRFTISRDNAKNTLYLQMNSLKPEDTALYYCARDVTGAVRGQGTQVTVSS | 34.6 | 620 | – | – |
| anti-IL-12Rβ2 VHH clone 2CRH62 (VHH, not shown: small tags and cut ends, periplasmic extract) VHH: QVQLQESGGGLVQPGGSLRLSCVESGRTFTVYDMGWFRQAPGKEREIVAAISADGATSIYQDSVKGRFTISRDNDAKNTVYLQMNSLKPEDTAVYYCAAGRSLIYNLYRANNTDYWGQGTQVTVSS | 41.9 | 891 | – | – |
| anti-IL-12Rβ2 VHH clone 3CAH60 (VHH, not shown: small tags and cut ends, periplasmic extract; also called 20361) VHH: QVQLQESGGGLVQPGGSLILSCVASGFAMDYLTMGWSREAPRNEREDISCIDTSGRSTDYLDSVKGRFTISRDNAKNTLYLHMNDLKPEDTAEYYCLASTSYCGAGYEYRGQGTQVTVSS | 0.1 | 18 | – | – |
| anti-IL-12Rβ2 VHH clone 3CAHS153 (VHH, not shown: small tags and cut ends, periplasmic extract) VHH: QVQLQESGGGLVQAGGSLRLSCAASGRTFSSYAMGWFRQVPGKERDFVAAVSWGGLSTYYADSVEGRFTISRDNAKNTVFLQMNSLKPEDTAVYYCAADRAYEGLGYGEYEYWGQGTQVTVSS | 36.8 | 789 | – | – |
| anti-IL-12Rβ2 VHH clone 3CAH28 (VHH, not shown: small tags and cut ends, periplasmic extract; also called 20356) VHH: QVQLQESGGGLVQSGASLRLSCAASERTLSGYAMGWFRQAPGKEREFVAAIRWSGSSTYYAESVEGRFTISRDNAKNTVYLQMNILKPEDTAVYYCAAGSDYADEYDYWGQGTQVTVSS | 0.15 | 37 | – | – |
| anti-IL-12Rβ2 VHH clone 20510 (VHH, not shown: small tags and cut ends, tested as periplasmic extract; also called 3CAM31) VHH: QVQLQESGGGLVQAGGSLRLSCAASGRTFSSYGMGWFRQAPGKEREFVAAISRGARITDYADSVKGRFTISRDNAKNTAYLQMNSLNPEDTAVYFCAAAYTYSGSHYVTARSSDYHSWGQGTQVTVSS | – | – | 1.2 | 16.4 |
| anti-IL-12Rβ2 VHH clone 20527 (VHH, not shown: small tags and cut ends, tested as periplasmic extract; also called 3CRMS90) VHH: QVQLQESGGGLVQAGGSLRLSCAASGFTLSTYAMSWVRQAPGKGLEWVSSISSSGASTNYADSVKGRFTISRDNAKNTLYLQMNSLKPEDTAVYYCAKASQNYSPPGQGTQVTVSS | – | – | 0.834 | 9.93 |
| anti-IL-12Rβ2 VHH clone 2CRH76 (VHH, not shown: small tags and cut ends, periplasmic extract) VHH: QVQLQESGGGLVQTGGSLRLSCVASGRTFNWSAMGWFRQPPGKEREVVATISGGGTSAYYADSVKGRFTISRDGAKNTLYLQMNSLKPEDTAVYYCAADRVDYRMTLTQNGNHYWGQGTQVTVSS | 36.6 | 668 | – | – |
| anti-IL-12Rβ2 VHH clone 2CRH82 (VHH, not shown: small tags and cut ends, periplasmic extract) VHH: QVQLQESGGGLVQAGGSLRLSCAASARTESMYAMAWFRQAPGKEREIVAGIIQSGGTTYISDYMKGRFSIDRGNAENTVYLQMDSLKPEDTAVYSCAAKVSSGTPSDIQISQSRWYDHWGQGTQVTVSS | 40.1 | 844 | – | – |

The next lines start with the values.

| % cells bound (human IL-12Rβ2) [%] | dMFI (human IL-12Rβ2) | ELISA binding hIL-12RB2/control [1] [ratio] | ELISA binding mIL-12RB2/control [2] [ratio] | Binder |
| --- | --- | --- | --- | --- |
| 31.5 | 580 | – | – | anti-IL-12Rβ2 VHH clone 3CRH93 (VHH, not shown: small tags and cut ends, periplasmic extract) VHH: QVQLQESGGGLVQAGGSLRLSCAASGRTVDSYAMGWFRQTPGKEREFVAASWGGGSTYYADSVKGRFTISRDNVKNTMYLQMDSLKPEDTAVYYCAAGPTYYSGPINDNWEGRYDSWGQGTQVTVSS |
| 43 | 1020 | – | – | anti-IL-12Rβ2 VHH clone 3CAHS172 (VHH, not shown: small tags and cut ends, periplasmic extract) VHH: QVQLQESGGGSVQAGGSLRLSCGASGFTFSSFGMHWFRQAPGKGQEWVATISSSGGTTYYSDSVKGRFTISRDNAKNTLYLQMNSLKPEDTALYYCARDVTGAVRGQGTQVTVSS |
| 41.2 | 918 | – | – | anti-IL-12Rβ2 VHH clone 3CRH73 (VHH, not shown: small tags and cut ends, periplasmic extract) VHH: QVQLQESGGGLVRAGGSLRLSCAASGHTFSNYVMGWFRQAPGKEREFVAAISWGGSNTYYADSVKGRFTISRDNAKNTVYLQMNSLKVEDTAVYYCAADRRFEGWNYYSMDYWGKGTQVTVSS |
| – | – | 1.05 | 22 | anti-IL-12Rβ2 VHH clone 20469 (VHH, not shown: small tags and cut ends, tested as periplasmic extract; also called 2CAM8) VHH: QVQLQESGGGLVQPGGSLRLSCAASGRTFSSYGMGWFRQAPGKKREFVAAISRDARITDYADSVKGRFTISRDNAKNTAYLEMNSLNPEDTAVYFCAAAYTYSGSHYVTARSSDYHSWGQGTQVTVSS |
| – | – | 0.983 | 15.8 | anti-IL-12Rβ2 VHH clone 20481 (VHH, not shown: small tags and cut ends, tested as periplasmic extract; also called 2CAM38) VHH: QVQLQESGGGLVQAGGSLRLSCAASGRTFSSYGMGWFRQAPGKERDFVAAISRDARITDYADSVKGRFTISRDNVKNTVYLQMNSLNPEDTAVYFCAAAYTYSGSHYVTARSSDYHSWGQGTQVTVSS |
| – | – | 0.979 | 18.1 | anti-IL-12Rβ2 VHH clone 20480 (VHH, not shown: small tags and cut ends, tested as periplasmic extract; also called 2CAM36) VHH: QVQLQESGGGLVQAGGSLRLSCAASGRTFSSYGMGWFRQAPGKEREFVAAISRDARITDYADSVKGRFTISRDNAKNTAYLEMNSLNPEDTAVYFCAAAYTYSGSHYVTARSSDYHSWGQGTQVTVSS |
| 28.3 | 602 | – | – | anti-IL-12Rβ2 VHH clone 3CRH83 (VHH, not shown: small tags and cut ends, periplasmic extract) VHH: QVQLQESGGGLVQAGGSLKLSCAASGNTFSINAMAWYRQAPGQELELVAAISDVGNTIYADSMKGRFTISRGNADNTVYLQMNSLKPEDTATYYCNAGTFYTSPGDSYYRGYDFWGQGTQVTVSS |
| – | – | 1.4 | 11.8 | anti-IL-12Rβ2 VHH clone 20447 (VHH, not shown: small tags and cut ends, tested as periplasmic extract; also called 2CRM39) VHH: QVQLQESGGGLVQPGGSLRLSCAASGFTFRSYAMSWVRQAPGKGLEWVSSISSSGTDTNYADSVKGRLTISRDNVKNTLYLQMNSLKPEDTAVYYCAKASQNYSPPGQGTQVTVSS |
| – | – | 0.989 | 7.52 | anti-IL-12Rβ2 VHH clone 20452 (VHH, not shown: small tags and cut ends, tested as periplasmic extract; also called 2CRM84) VHH: QVQLQESGGGLVQAGGSLRLSCAASGFAFSSVAMSWVRQAPGKGLEWVSSISSGGHDTNYANSVKGRFTISRDNAKNTLYLQMNSLKPEDTAVYYCAKSSRNYSPPGQGTQVTVSS |
| – | – | 1.26 | 33.5 | anti-IL-12Rβ2 VHH clone 20451 (VHH, not shown: small tags and cut ends, tested as periplasmic extract; also called 2CRM83) VHH: QVQLQESGGGLVQPGGSLRLSCAASGFTFSAYAMSWVRQAPGKGLEWVSSISSTGTNPNYADSVKGRFTISRDNAKNTLYLQMNSLKPEDTAVYYCAEAYRNYSPPGQGTQVTVSS |
